What all share (assay): FRET or BRET
Assay [1] has as its target ASIC3(1–43,466–505)1a-CER (rat) (UniProt O35240).
The target of assay [2] is ASIC3(466–505)1a-CER (rat) (UniProt O35240).
The target of assay [3] is ASIC3(506–519)1a-CER (rat) (UniProt O35240).
The target in a further assay is T1, ASIC3(44–71)1a-CER (rat, UniProt O35240 1-43; P55926 44-71; O35240 72-533).
T1 chain (looked up): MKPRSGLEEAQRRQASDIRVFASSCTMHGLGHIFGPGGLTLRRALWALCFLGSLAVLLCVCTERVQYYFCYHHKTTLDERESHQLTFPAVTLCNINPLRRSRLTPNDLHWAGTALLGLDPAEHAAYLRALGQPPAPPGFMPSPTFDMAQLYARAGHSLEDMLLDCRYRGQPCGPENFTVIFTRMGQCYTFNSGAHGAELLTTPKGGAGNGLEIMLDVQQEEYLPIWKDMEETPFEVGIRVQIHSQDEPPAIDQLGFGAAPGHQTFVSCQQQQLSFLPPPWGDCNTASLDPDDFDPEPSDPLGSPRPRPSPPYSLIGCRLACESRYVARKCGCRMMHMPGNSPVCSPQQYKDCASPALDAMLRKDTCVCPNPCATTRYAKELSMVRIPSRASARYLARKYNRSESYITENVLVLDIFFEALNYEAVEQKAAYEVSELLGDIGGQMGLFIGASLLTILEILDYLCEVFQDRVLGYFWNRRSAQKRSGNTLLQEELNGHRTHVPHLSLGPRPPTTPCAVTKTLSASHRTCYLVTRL

The target in another assay is T2, ASIC3(Q269G)-CER (rat, UniProt O35240 1-533, Q269G).
T2 sequence (looked up): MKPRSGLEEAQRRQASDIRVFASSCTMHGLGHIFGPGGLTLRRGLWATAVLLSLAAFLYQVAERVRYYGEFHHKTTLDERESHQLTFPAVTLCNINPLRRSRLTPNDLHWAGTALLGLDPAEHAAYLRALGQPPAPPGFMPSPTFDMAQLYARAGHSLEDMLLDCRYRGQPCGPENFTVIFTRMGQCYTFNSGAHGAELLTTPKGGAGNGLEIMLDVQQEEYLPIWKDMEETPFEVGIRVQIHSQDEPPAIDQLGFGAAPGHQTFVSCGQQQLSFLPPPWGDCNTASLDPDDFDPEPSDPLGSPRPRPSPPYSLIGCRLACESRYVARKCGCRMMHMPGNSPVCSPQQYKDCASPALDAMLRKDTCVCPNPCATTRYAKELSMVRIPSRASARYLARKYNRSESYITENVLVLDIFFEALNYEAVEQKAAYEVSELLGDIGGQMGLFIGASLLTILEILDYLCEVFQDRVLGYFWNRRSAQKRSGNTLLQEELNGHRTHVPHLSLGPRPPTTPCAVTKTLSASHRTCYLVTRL

For assay [4], the target named is T3, ASIC3-CER (rat acid-sensing ion channel 3 with a C-terminal mCerulean3) (rat, UniProt O35240 1-533).
T3 sequence (looked up): T2 sequence (looked up) with G269Q

The source of these data is publication PMC7054857 (The Journal of General Physiology, 2020).

Numbering of substitutions follows the chain as printed.

B1: STOM-YFP (mouse stomatin with a C-terminal EYFP) (natural protein, UniProt P54116 1-284, looked up)
chain: MSDKRQSSHVQSQRIPESFRENSKTELGACGWILVAASFFFVIITFPISIWICIKIVKEYERVIIFRLGRILQGGAKGPGLFFILPCTDSLIKVDMRTISFDIPPQEVLTKDSVTISVDGVVYYRVQNATLAVANITNADSATRLLAQTTLRNALGTKNLSQILSDREEIAHHMQSTLDDATDDWGIKVERVEIKDVKLPVQLQRAMAAEAEAAREARAKVIAAEGEMNASRALKEASMVITESPAALQLRYLQTLTTIAAEKNSTIVFPLPVDMLQGIMGSNH
With B1, the FRET efficiency in assay [1] is 9.3%; in assay [2] it was 13.1%; in assay [3] it was 9.9%; in the assay with ASIC3(44–71)1a-CER, 11.8%; with ASIC3(Q269G)-CER, 10.3%; in assay [4], 12.5%.
